From the supplement of paper PMC11780869

Test system: Bacillus subtilis
Test: cleaved RNA product abundance (RNA/gDNA barcode ratio) relative to median wild-type variant (ratio to wild type); higher = more accumulation of the downstream cleavage product
How it was run: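 Sequencing of barcodes from gel-selected, reverse-transcribed cleaved RNA and from genomic DNA, with UMI collapsing, yielded a per-construct RNA:gDNA ratio. Scaled to the median construct with the unmutated site, this ratio is the cleaved product abundance. The barcoded reporters (truncated aprE or tetM mRNAs with mutagenized RNase Y cleavage-site windows) were integrated into the B. subtilis chromosome, and cultures grew in LB at 37°C from OD600 0.0003 to 0.3.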

[1] = experiment (reporter, strain, medium): exp 2b: truncated aprE reporter, strain BJT200, cleavage site: cggR-gapA (positions -7 to +36 mutated)
[2] = experiment (reporter, strain, medium): exp 4a: truncated aprE reporter, strain BJT201 with 2% xylose (RNase J1 expressed), cleavage site: cggR-gapA (positions -7 to +36 mutated)
[3] = experiment (reporter, strain, medium): exp 8a: truncated aprE reporter, strain BJT201 with 2% xylose (RNase J1 expressed), cleavage site: glnRA (positions -5 to +31 mutated)
[4] = experiment (reporter, strain, medium): exp 6: tetM reporter, strain 168, cleavage site: cggR-gapA (positions -7 to +36 mutated)

## ACAGACGAAGGAGCCGCAAAGATGTTATTAAGGGATGAATAATCCCTCAATATAAATAACTCTCACTTATTTAAA
[1]
  cleaved RNA product abundance: 0.767
[2]
  cleaved RNA product abundance: 0.897

## CGACATGTCCCGCTTCTTTCATTAATCCGTTAGCTACTGTTTTGCTATATTCATTTACATTTTAAGAGGAGGAAT
[3]
  cleaved RNA product abundance: 0.64

## ACAGACGAAGGAGCCGCAAAGCAGTTATTAAGTGATGAATAATCCCTCAATATAAATATCTCTCACTTATTTAAA
[2]
  cleaved RNA product abundance: 0.0809

## ACAGACGAAGGAGCCGCAAAGAAGTTATTAAGGGATGTATAATCCCTTAATATAAATATCTCTCACTTATTTAAA
[2]
  cleaved RNA product abundance: 0.445

## ACAGACGAAGGAGCCGCAAAGAAGTTAATAAGGGATGAACAATCCCTCAATATAAATATCTCTCACTTATTTAAA
[1]
  cleaved RNA product abundance: 0.251

## ACAGACGAAGGAGCCGCAACGAAGTTATTAAGGGATGAATAATCCCTCAAAATAAATATCTCTCACTTATTTAAA
[2]
  cleaved RNA product abundance: 0.357

## ACAGACGAAGGAGCCGCAAAGAAGTTATTAAGAGATGAATAATCCCTCTATATAAATATCTCTCACTTATTTAAA
[2]
  cleaved RNA product abundance: 0.118

## ACAGACGAAGGAGCCGCAAAAAAGTTATTAAGGGATGAATAATTCCTCAATATAAATATCTCTCACTTATTTAAA
[1]
  cleaved RNA product abundance: 0.68
[2]
  cleaved RNA product abundance: 0.814

## ACAGACGAAGGAGCCGCAAAGAAGTTTTTAAGGGATGAATAAACCCTCAATATAAATATCTCTCACTTATTTAAA
[2]
  cleaved RNA product abundance: 0.17

## ACAGACGAAGGAGCCGCAAAGAAGTTATTAAGGCAGGAATAATCCCTCAATATAAATATCTCTCACTTATTTAAA
[1]
  cleaved RNA product abundance: 0.102
[2]
  cleaved RNA product abundance: 0.167

## ACAGACGAAGGAGCCGCAAAGAAGTTATTAAGTGATAAATAATCCCTCAATATAAATATCTCTCACTTATTTAAA
[2]
  cleaved RNA product abundance: 0.103
[4]
  cleaved RNA product abundance: 0.113

## CGACATGTCCCGCTTCTTTCATTATTCCGTTAGCAACAGTTTTGCTATATACATTTACCTTTTAAGAGGAGGAAT
[3]
  cleaved RNA product abundance: 1.12

## ACAGACGAAGGAGCCGCAAAGAAGATATTAAGGGATGAATAATCCCTCAATTTAAATATCTCTCACTTATTTAAA
[1]
  cleaved RNA product abundance: 0.157

## ACAGACGAAGGAGCCGCAAAGAAGTTTTTAGGGGATGAATAATCCCTCAATATAAATATCTCTCACTTATTTAAA
[2]
  cleaved RNA product abundance: 0.507

## ACAGACGAAGGAGCCGCAAAAAAGTTATTAAGGGATGAACAATCCCTCAATATAAATATCTCTCACTTATTTAAA
[1]
  cleaved RNA product abundance: 0.87
[2]
  cleaved RNA product abundance: 0.764

## CGACATGTCCCGCTTCTTTCATTAATCCGTTAGCAACTGTTATGCTATATACAATTACCTTTTAAGAGGAGGAAT
[3]
  cleaved RNA product abundance: 1.02

## ACAGACGAAGGAGCCGCAAAGAAGTTATTAAGGGAAGAATAATCCCTGAATATAAATATCTCTCACTTATTTAAA
[2]
  cleaved RNA product abundance: 0.374

## ACAGACGAAGGAGCCGCAAAGAAGTTATTAAGGTATGAATAATCCCTCAATAAAAATATCTCTCACTTATTTAAA
[1]
  cleaved RNA product abundance: 0.119
[2]
  cleaved RNA product abundance: 0.0613

## CGACATGTCCCGCTTCTTTCATTAATTCGTTAGCAACTGTTTTGCTATATACATTTACGTTTTAAGAGGAGGAAT
[3]
  cleaved RNA product abundance: 0.881

## CGACATGTCCCGCTTCTTTCATTATCCGTTAGCAACTGTTTTGCTATATACATTTACCTTTTAAGAGGAGGAATT
[3]
  cleaved RNA product abundance: 0.941

## ACAGACGAAGGAGCCGCAAAGAAGTTATTAAAGGATGAATAATCCCTCAATAGAAATATCTCTCACTTATTTAAA
[1]
  cleaved RNA product abundance: 0.111
[2]
  cleaved RNA product abundance: 0.107

## CGACATGTCCCGCTTCTTTCATTAATCCGTTAGCAACTCTTTTGCTATAAACATTTACCTTTTAAGAGGAGGAAT
[3]
  cleaved RNA product abundance: 1.3

## ACAGACGAAGGAGCCGCAAAGAAGTTGTTCAGGGATGAATAATCCCTCAATATAAATATCTCTCACTTATTTAAA
[2]
  cleaved RNA product abundance: 0.446

## ACAGACGAAGGAGCCGCAAAGAAGTTATTAAGCGATGAACAATCCCTCAATATAAATATCTCTCACTTATTTAAA
[2]
  cleaved RNA product abundance: 0.133

## ACAGACGAAGGAGCCGCAAAGAAATTATTAAGGGATGAATAATCCCTCAATATAAATCTCTCTCACTTATTTAAA
[2]
  cleaved RNA product abundance: 0.66

## ACAGACGAAGGAGCCGCAAAGAAGTTATTAAGGGATGAATGATCCCTCAATATAAAAATCTCTCACTTATTTAAA
[2]
  cleaved RNA product abundance: 0.651

## CGACATGTCCCGCTTCTTTCATTAATCCGTTAGCAACTGTTTGGCTATATACATTTAACTTTTAAGAGGAGGAAT
[3]
  cleaved RNA product abundance: 0.488

## ACAGACGAAGGAGCCGCAAAGAAGTTATTAAGGGATGAATATACCCTCAATATAAATATCTCTCACTTATTTAAA
[2]
  cleaved RNA product abundance: 0.485

## CGACATGTCCCGCTTCTTTCATTAATCCGTTAGAAACTCTTTTGCTATATACATTTACCTTTTAAGAGGAGGAAT
[3]
  cleaved RNA product abundance: 0.377

## ACAGACGAAGGAGCCGCAACGAAGTTATTAAGGGATGAATAATCCCTCAATATACATATCTCTCACTTATTTAAA
[2]
  cleaved RNA product abundance: 0.706

## CGACATGTCCCGCTTCTTTCATTAATCTGTTAGCAACTGTTTTGCTATATACATTTATCTTTTAAGAGGAGGAAT
[3]
  cleaved RNA product abundance: 0.969

## ACAGACGAAGGAGCCGCAAAGAAGTTATTAAAGGATGAATAATCCCTCAATATGAATATCTCTCACTTATTTAAA
[1]
  cleaved RNA product abundance: 0.094
[2]
  cleaved RNA product abundance: 0.0586

## ACAGACGAAGGAGCCGCAAAGAAGGTATTAAGGGATGAATAATCCCTAAATATAAATATCTCTCACTTATTTAAA
[1]
  cleaved RNA product abundance: 0.994
[2]
  cleaved RNA product abundance: 0.966

## ACAGACGAAGGAGCCGCAAAGAAGTAATTAAGGGATGAATAATCCCTCAATATAGATATCTCTCACTTATTTAAA
[2]
  cleaved RNA product abundance: 0.303

## ACAGACGAAGGAGCCGCAAAGAAGTTATTAAGGGATGAATACTCCCTCAAAATAAATATCTCTCACTTATTTAAA
[1]
  cleaved RNA product abundance: 0.176
[2]
  cleaved RNA product abundance: 0.194

## ACAGACGAAGGAGCCGCAAAGAAATTATTACGGGATGAATAATCCCTCAATATAAATATCTCTCACTTATTTAAA
[2]
  cleaved RNA product abundance: 0.396

## CGACATGTCCCGCTTCTTTCATTAATCCGTTAGCATCTGTTTTGCTATATAGATTTACCTTTTAAGAGGAGGAAT
[3]
  cleaved RNA product abundance: 0.899

## CGACATGTCCCGCTTCTTTCATTAATCCGTTAGCAATTGTTTTGCTATATACATTTACGTTTTAAGAGGAGGAAT
[3]
  cleaved RNA product abundance: 1.1

## CGACATGTCCCGCTTCTTTCATTATTCCGTTAGCAACTGTTTTTCTATATACATTTACCTTTTAAGAGGAGGAAT
[3]
  cleaved RNA product abundance: 0.62

## ACAGACGAAGGAGCCGCAAAGAAGTTATTAATGGATGAATAATCGCTCAATATAAATATCTCTCACTTATTTAAA
[1]
  cleaved RNA product abundance: 0.077

## ACAGACGAAGGAGCCGCAAAGAAGTTATTCAGGGATGAACAATCCCTCAATATAAATATCTCTCACTTATTTAAA
[2]
  cleaved RNA product abundance: 0.603

## ACAGACGAAGGAGCCGCAACGAAGTTATTAAGGGATGAATAATCCCTCAATATAAATAACTCTCACTTATTTAAA
[1]
  cleaved RNA product abundance: 0.695
[2]
  cleaved RNA product abundance: 0.827

## ACAGACGAAGGAGCCGCAAATAAATTATTAAGGGATGAATAATCCCTCAATATAAATATCTCTCACTTATTTAAA
[1]
  cleaved RNA product abundance: 0.807
[2]
  cleaved RNA product abundance: 0.801

## ACAGACGAAGGAGCCGCAAAGAAGTTATTAAGGGAGGAATAAACCCTCAATATAAATATCTCTCACTTATTTAAA
[2]
  cleaved RNA product abundance: 0.382

## CGACATGTCCCGCTTCTTTCATTAATCCGTTAGAAACTGTTTTGCTATACACATTTACCTTTTAAGAGGAGGAAT
[3]
  cleaved RNA product abundance: 0.253

## CGACATGTCCCGCTTCTTTCATTAATCCGTTAGCAACTGTTTTGCTCTATACATTTACCTTTTAAGAGGAGGAAT
[3]
  cleaved RNA product abundance: 0.265

## ACAGACGAAGGAGCCGCAAAGAAGTTATTAAGCGATTAATAATCCCTCAACATAAATATCTCTCACTTATTTAAA
[2]
  cleaved RNA product abundance: 0.0653

## ACAGACGAAGGAGCCGCAAAGAAGTTTTTAAGGGATGAATAATCCCTCAACATAAATATCTCTCACTTATTTAAA
[2]
  cleaved RNA product abundance: 0.295

## ACAGACGAAGGAGCCGCACAGAAGTTATTCAGGGATGAATAATCCCTCAATATAAATATCTCTCACTTATTTAAA
[2]
  cleaved RNA product abundance: 1.28

## CGACATGTCCCGCTTCTTTCATTAATCAGTTAGCAACTGTTTTGCTATATATATTTACCTTTTAAGAGGAGGAAT
[3]
  cleaved RNA product abundance: 0.759

## CGACATGTCCCGCTTCTTTCATTAATCCGTGAGCAACTGTTTTGCTATATACATTTAACTTTTAAGAGGAGGAAT
[3]
  cleaved RNA product abundance: 0.854

## ACAGACGAAGGAGCCGCAAAGAAGTTGTTAAGGGATGAATAATACCTCAATATAAATATCTCTCACTTATTTAAA
[1]
  cleaved RNA product abundance: 0.101
[4]
  cleaved RNA product abundance: 0.134

## ACAGACGAAGGAGCCGCAAAGAAGTTATTAAGGGATGAATAATCCCTCCATATAAATATCTCTCACTTATTTAAA
[1]
  cleaved RNA product abundance: 0.243
[2]
  cleaved RNA product abundance: 0.341
[4]
  cleaved RNA product abundance: 0.34

## ACAGACGAAGGAGCCGCTAAGAAGTTATTAAGGGTTGAATAATCCCTCAATATAAATATCTCTCACTTATTTAAA
[2]
  cleaved RNA product abundance: 0.377
